Data taken from publication PMC5084080.

Target: LarB1-His (Rhodococcus jostii)
Test: BLI

“LarA-MBP (from UniProt H7C8I3 1-46) (natural protein)” showed a Kd of 440 nM.
